Experimental data: the Immune Epitope Database (IEDB)

Key:
Experiment in all cases: IEDB peptide-MHC binding, purified MHC/competitive/radioactivity; ≥ and ≤ were set here for values at or beyond the usual limits of such assays
Conditions in all cases: source organism: Bordetella pertussis
[1] = molecular target: HLA-B*53:01
[2] = molecular target: HLA-B*44:03
[3] = molecular target: HLA-B*57:01
[4] = molecular target: HLA-A*02:01
[5] = molecular target: HLA-B*07:02

Question: PGTPGDLLE was tested. Which IC50 [1] did it give?
Answer: ≥ 78.2 µM

Question: Which IC50 [1] does the source give for NPQTQLSNI here?
Answer: 23.6 µM

Question: For EVDGIIQEF, which IC50 [2] is on record?
Answer: 15.9 µM

Question: With SSTPLGSLF as the sequence, how does the IC50 [3] read?
Answer: ≥ 70.4 µM

Question: ILPILVLAL was tested. Which IC50 [4] did it give?
Answer: 0.0254 µM

Question: With ANEANALLW as the sequence, how does the IC50 [2] read?
Answer: 9.19 µM

Question: With FDTMLGFAI as the sequence, how does the IC50 [1] read?
Answer: 2.91 µM

Question: For VEASAITTY, which IC50 [2] is on record?
Answer: 1.97 µM

Question: For PPRPVVAEK, which IC50 [5] is on record?
Answer: 69.6 µM

Question: For LSDAGHEHD, which IC50 [1] is on record?
Answer: 36.5 µM

Question: Which IC50 [2] does the source give for YEDATFETY here?
Answer: 3.73 µM

Question: PGTFTAGKD was tested. Which IC50 [4] did it give?
Answer: 62.5 µM

Question: For FTHADGWFL, which IC50 [4] is on record?
Answer: 14 µM
